Consider three molecules from patent US20060024300A1 (published 2006).

Test [1] has as its target T1, CD20 (human, UniProt P11836 1-297).
T1 construct: whole, on cells; not clear that this entry is the whole human CD20, so it is not used; also called human CD20; CD20 antigen
T1 sequence (looked up): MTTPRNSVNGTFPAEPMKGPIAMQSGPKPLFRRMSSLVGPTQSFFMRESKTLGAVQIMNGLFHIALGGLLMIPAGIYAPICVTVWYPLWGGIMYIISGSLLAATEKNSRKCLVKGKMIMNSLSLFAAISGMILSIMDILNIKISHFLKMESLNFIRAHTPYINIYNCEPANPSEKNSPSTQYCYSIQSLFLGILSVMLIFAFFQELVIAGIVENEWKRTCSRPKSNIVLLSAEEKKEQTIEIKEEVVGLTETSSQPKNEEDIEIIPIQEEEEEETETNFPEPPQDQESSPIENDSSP
Description: cell-based ELISA, WIL2-S cells.
Description: To measure relative binding affinities to the CD20 antigen, a cell-based ELISA assay was developed. […] The cells were washed with PBS containing 1% FBS (assay buffer) and seeded at 250-300,000 cellwell in 96-well round bottom plates (Nunc, Roskilde, Denmark). […] The plates were buried in ice and incubated for 45 min. To remove the unbound antibody, 0.1 mL assay buffer were added to the wells. Plates were centrifuged and supernatants were removed. Cells were washed two more times with 0.2 mL assay buffer. Antibody bound to the plates was detected by adding peroxidase conjugated goat anti-human Fc antibody (Jackson ImmunoResearch, West Grove, Pa.) to the plates. After a 45 min incubation, cells were washed as described before. TMB substrate (3,3′,5,5′-tetramethyl benzidine; Kirkegaard & Perry Laboratories, Gaithersburg, Md.) was added to the plates. The reaction was stopped by adding 1 M phosphoric acid. Titration curves were fit with a four-parameter nonlinear regression curve-fitting program (KaleidaGraph, Synergy software, Reading, Pa.). The absorbance at the midpoint of the titration curve (mid-OD) and its corresponding concentration of the standard were determined. Then the concentration of each variant at this mid-OD was determined, and the concentration of the standard was divided by that of each variant.

Test [2] addresses T1, CD20. Description: Scatchard analysis, cold antibody against 125I-2H7.v16 on WIL2-S cells.
Description: All dilutions were performed in binding assay buffer (DMEM media containing 1% bovine serum albumin, 25 mM HEPES pH 7.2, and 0.01% sodium azide). […] WIL2-S cells (60,000 cells in 0.025 mL) were then added. The plate was sealed and incubated at room temperature for 24 h, then centrifuged for 15 min at 3,500 RPM. The supernatant was then aspirated and the cell pellet was washed and centrifuged. The supernatant was again aspirated, and the pellets were dissolved in 1N NaOH and transferred to tubes for gamma counting.

B1: 2H7 version 166 (antibody, human IgG1, kappa, V domains shown)
VH: EVQLVESGGGLVQPGGSLRLSCAASGYTFTSYNMHWVRQAPGKGLEWVGAIYPGNGDTSYNQKFKGRFTISVDKSKNTLYLQMNSLRAEDTAVYYCARVVYYGGDWYFDVWGQGTLVTVSS
VL: DIQMTQSPSSLSASVGDRVTITCRASSSVSYMHWYQQKPGKAPKPLIYAPSNLASGVPSRFSGSGSGTDFTLTISSLQPEDFATYYCQQWSFNPPTFGQGTKVEIKR
notes: IgG1; 2H7.v16 background; Y100b is deleted (empty new residue)
In the case of B1, in test [1], the Relative binding was 0.99 ratio (2H7.v16 conc./variant conc.).

B2: 2H7.v73 (antibody, IgG1)
heavy: not shown
light: DIQMTQSPSSLSASVGDRVTITCRASSSVSYLHWYQQKPGKAPKPLIYAPSNLASGVPSRFSGSGSGTDFTLTISSLQPEDFATYYCQQWSFNPPTFGQGTKVEIKRTVAAPSVFIFPPSDEQLKSGTASVVCLLNNFYPREAKVQWKVDNALQSGNSQESVTEQDSKDSTYSLSSTLTLSKADYEKHKVYACEVTHQGLSSPVTKSFNRGEC
notes: IgG1; 2H7.v16 background
What is called Kd is the equilibrium constant for the complex coming apart. Regarding B2, the dissociation constant Kd in test [2] was determined as 1.22 nM.

B3: 2H7.v75 (antibody, IgG1)
heavy: EVQLVESGGGLVQPGGSLRLSCAASGYTFTSYNMHWVRQAPGKGLEWVGAIYPGNGDTSYNQKFKGRFTISVDKSKNTLYLQMNSLRAEDTAVYYCARVVYYSASYWYFDVWGQGTLVTVSSASTKGPSVFPLAPSSKSTSGGTAALGCLVKDYFPEPVTVSWNSGALTSGVHTFPAVLQSSGLYSLSSVVTVPSSSLGTQTYICNVNHKPSNTKVDKKVEPKSCDKTHTCPPCPAPELLGGPSVFLFPPKPKDTLMISRTPEVTCVVVDVSHEDPEVKFNWYVDGVEVHNAKTKPREEQYNATYRVVSVLTVLHQDWLNGKEYKCKVSNKALPAPIAATISKAKGQPREPQVYTLPPSREEMTKNQVSLTCLVKGFYPSDIAVEWESNGQPENNYKTTPPVLDSDGSFFLYSKLTVDKSRWQQGNVFSCSVMHEALHNHYTQKSLSLSPGK
light: DIQMTQSPSSLSASVGDRVTITCRASSSVSYLHWYQQKPGKAPKPLIYAPSNLASGVPSRFSGSGSGTDFTLTISSLQPEDFATYYCQQWSFNPPTFGQGTKVEIKRTVAAPSVFIFPPSDEQLKSGTASVVCLLNNFYPREAKVQWKVDNALQSGNSQESVTEQDSKDSTYSLSSTLTLSKADYEKHKVYACEVTHQGLSSPVTKSFNRGEC
notes: IgG1; 2H7.v16 background
On to B3, for which binding in test [2] was put at a Kd of 1.09 nM.
